According to paper PMC4414354, “The Pentameric Nucleoplasmin Fold Is Present in Drosophila FKBP39 and a Large Number of Chromatin-Related Proteins” (Journal of Molecular Biology, 2015):

How the values were obtained:
[1] = molecular target: the molecule itself; test: SAXS; Fpr4Δloop, 1.0-4.0 mg/mL, 50 mM Hepes pH 7.5, 100 mM NaCl, 11 °C, beamline X33 (EMBL/DESY Hamburg); P5 symmetry
[2] = molecular target: the molecule itself; test: SEC; S200 or S75 120-mL column in 20 mM Tris-HCl pH 8.0, 150 mM (salt not given), 2 mM β-mercaptoethanol; apparent molecular weight
[3] = molecular target: the molecule itself; test: SANS; deuterated FKBP39 NPL, 2.0-10.0 mg/mL, 20 mM 4-morpholineethanesulfonic acid pH 6.0, 25 mM NaCl, 20 °C; bead model fitted with 5-fold symmetry
[4] = molecular target: the molecule itself; test: SAXS; HD2 NPL 1.0-5.0 mg/mL and FKBP39 NPL 1.0-20.0 mg/mL, 50 mM Hepes pH 7.5, 100 mM NaCl, 11 °C, ESRF BioSAXS beamline ID14eh3; FKBP39 modelled with P5, HD2 with P25 symmetry

B1: Fpr4 NPLΔloop (S. cerevisiae Fpr4 amino acids 1-168 with the β4-β5 loop deleted) (domain or fragment, Saccharomyces cerevisiae, UniProt Q06205 1-168, looked up)
chain: MSDMLPLATYSLNVEPYSPTPALNFKIPVTIRITMAAIDPEPFDDDKKPSTLRIIKRNEIDDEFEECVLLTLSPKGQYQQALDITIAPEEDVQFVVTGSYTISLTGNYVKHPF
notes: Fpr4, Saccharomyces cerevisiae, amino acids 1-58 joined to 114-168 by overlap deletion PCR; The construct contains a C-terminal unstructured tail seen in the SAXS model; also called Fpr4Δloop; Fpr4 NPL domain; source: E. coli BL21 (DE3), purified
With B1 the “stoichiometry N” value [1] was 5.

B2: FKBP39 NPL domain (N-terminal nucleoplasmin-like domain of Drosophila FKBP39, residues 1-92) (domain or fragment, Drosophila melanogaster)
chain: QGAMAMFWGLNMKPERKYSQTIIKSFHISGVALDKGQEAKLYLAAEKQEYIVATVTKAIPQVALDLNFSKGDRIMFYTAGDASVSLLGYLHDIDSGS
notes: 3-4 additional amino acids left at the N-terminus after chymotrypsin cleavage, printed as [F]QGA: with or without the leading F; second amino acid changed from Ser to Ala for the NcoI cloning site; dipeptide from the BamHI site at the C-terminus; Deuterated or otherwise isotope-labelled samples were used for SANS and NMR; The structure was deposited at the PDB; also called N-terminal domain of …
With B2 the “stoichiometry N” value [2] was ~5 and the “stoichiometry N” value [3] was 5.

B3: Arabidopsis thaliana type 2 histone deacetylase HD2 NPL domain (HD2a, amino acids 1-112) (domain or fragment, UniProt Q56WH4 1-112, looked up)
chain: MEFWGVAVTPKNATKVTPEEDSLVHISQASLDCTVKSGESVVLSVTVGGAKLVIGTLSQDKFPQISFDLVFDKEFELSHSGTKANVHFIGYKSPNIEQDDFTSSDDEDVPEA
notes: type 2 histone deacetylase (printed as HD2a), Arabidopsis thaliana, amino acids 1-112; also called Arabidopsis NPL construct; A thali; source: E. coli BL21 (DE3), purified; copies: 10
In the case of B3, the “stoichiometry N” value [4] is reported as 10.
